Values of other authors in paper PMC4768738.

What was measured:
[1] = target: ankyrin (Homo sapiens) (UniProt P16157)
[2] = target: p55 (Homo sapiens) (UniProt Q00013)
UniProt Q00013, sequence (Q00013 2-466): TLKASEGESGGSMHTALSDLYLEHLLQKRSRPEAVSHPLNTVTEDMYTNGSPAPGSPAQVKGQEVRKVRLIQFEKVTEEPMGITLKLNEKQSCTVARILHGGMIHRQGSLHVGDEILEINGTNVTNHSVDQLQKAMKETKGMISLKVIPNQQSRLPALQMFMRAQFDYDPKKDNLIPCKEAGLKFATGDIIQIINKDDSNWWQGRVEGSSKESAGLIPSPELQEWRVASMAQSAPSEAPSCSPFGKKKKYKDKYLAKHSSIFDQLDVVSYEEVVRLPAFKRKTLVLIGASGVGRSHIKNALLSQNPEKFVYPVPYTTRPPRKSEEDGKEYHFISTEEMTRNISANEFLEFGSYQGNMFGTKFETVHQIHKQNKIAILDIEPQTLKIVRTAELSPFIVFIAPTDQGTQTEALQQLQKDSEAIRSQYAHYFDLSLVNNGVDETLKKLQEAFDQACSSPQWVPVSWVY

UniProt P16157, sequence (P16157 whole entry): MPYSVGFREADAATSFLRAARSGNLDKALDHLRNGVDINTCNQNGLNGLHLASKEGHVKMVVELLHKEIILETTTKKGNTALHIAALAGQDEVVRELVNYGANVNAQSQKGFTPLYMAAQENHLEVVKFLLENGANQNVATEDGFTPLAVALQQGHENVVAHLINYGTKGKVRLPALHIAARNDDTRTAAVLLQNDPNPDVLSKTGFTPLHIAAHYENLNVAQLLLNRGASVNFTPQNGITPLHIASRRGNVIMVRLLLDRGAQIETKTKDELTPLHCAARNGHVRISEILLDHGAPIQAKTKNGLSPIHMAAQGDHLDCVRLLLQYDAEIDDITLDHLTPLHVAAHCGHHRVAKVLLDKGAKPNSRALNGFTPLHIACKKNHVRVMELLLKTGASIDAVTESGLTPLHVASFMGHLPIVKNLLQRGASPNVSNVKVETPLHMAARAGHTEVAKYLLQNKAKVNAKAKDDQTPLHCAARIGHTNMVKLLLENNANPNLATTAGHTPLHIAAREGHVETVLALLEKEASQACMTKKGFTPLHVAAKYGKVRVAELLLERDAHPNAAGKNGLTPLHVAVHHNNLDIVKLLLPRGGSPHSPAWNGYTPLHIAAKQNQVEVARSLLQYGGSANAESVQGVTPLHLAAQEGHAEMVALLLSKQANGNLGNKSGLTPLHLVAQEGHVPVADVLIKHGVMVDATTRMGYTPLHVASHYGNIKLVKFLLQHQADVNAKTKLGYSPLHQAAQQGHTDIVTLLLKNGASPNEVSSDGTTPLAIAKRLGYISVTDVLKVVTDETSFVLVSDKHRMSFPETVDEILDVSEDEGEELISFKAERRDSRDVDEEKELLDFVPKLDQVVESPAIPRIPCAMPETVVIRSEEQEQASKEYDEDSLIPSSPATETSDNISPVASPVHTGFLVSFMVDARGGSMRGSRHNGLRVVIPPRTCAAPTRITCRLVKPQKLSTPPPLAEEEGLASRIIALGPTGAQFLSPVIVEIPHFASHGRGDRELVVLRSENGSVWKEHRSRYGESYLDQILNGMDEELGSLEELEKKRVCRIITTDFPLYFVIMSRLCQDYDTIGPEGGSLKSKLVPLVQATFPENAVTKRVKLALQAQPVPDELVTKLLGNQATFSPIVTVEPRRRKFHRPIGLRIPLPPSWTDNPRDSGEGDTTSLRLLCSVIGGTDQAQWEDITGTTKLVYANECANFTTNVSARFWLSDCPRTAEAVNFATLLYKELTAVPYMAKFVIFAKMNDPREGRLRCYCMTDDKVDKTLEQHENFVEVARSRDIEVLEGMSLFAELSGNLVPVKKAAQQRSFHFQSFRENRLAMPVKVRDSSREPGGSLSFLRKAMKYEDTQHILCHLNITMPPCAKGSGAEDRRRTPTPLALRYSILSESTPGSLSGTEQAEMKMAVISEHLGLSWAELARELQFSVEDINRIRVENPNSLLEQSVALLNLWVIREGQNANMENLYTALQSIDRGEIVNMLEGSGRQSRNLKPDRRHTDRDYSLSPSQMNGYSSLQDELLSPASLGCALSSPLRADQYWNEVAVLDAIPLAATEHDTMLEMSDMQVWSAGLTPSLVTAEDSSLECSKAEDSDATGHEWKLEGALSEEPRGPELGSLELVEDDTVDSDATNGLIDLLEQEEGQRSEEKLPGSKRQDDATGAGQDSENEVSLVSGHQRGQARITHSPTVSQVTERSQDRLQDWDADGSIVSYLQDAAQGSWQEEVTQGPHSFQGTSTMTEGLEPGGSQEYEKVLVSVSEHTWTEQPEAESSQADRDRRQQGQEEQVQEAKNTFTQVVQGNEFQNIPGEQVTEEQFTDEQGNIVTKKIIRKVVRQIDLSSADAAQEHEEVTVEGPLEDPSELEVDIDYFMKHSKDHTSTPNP

Row | Substance | Kd [1] [nM] | Kd [2] [nM]
1 | protein 4.2 (from UniProt P16452) | 100 | 
2 | protein 4.1R (from UniProt P11171) |  | 100
